The results in this text go back to patent US20160046711A1 (Novartis, published 2016).

Assay [1] addresses T1, cynomolgus CDH6 expressed on CHO cells (cynomolgus, UniProt A0A2K5TW62 54-790).
T1 sequence: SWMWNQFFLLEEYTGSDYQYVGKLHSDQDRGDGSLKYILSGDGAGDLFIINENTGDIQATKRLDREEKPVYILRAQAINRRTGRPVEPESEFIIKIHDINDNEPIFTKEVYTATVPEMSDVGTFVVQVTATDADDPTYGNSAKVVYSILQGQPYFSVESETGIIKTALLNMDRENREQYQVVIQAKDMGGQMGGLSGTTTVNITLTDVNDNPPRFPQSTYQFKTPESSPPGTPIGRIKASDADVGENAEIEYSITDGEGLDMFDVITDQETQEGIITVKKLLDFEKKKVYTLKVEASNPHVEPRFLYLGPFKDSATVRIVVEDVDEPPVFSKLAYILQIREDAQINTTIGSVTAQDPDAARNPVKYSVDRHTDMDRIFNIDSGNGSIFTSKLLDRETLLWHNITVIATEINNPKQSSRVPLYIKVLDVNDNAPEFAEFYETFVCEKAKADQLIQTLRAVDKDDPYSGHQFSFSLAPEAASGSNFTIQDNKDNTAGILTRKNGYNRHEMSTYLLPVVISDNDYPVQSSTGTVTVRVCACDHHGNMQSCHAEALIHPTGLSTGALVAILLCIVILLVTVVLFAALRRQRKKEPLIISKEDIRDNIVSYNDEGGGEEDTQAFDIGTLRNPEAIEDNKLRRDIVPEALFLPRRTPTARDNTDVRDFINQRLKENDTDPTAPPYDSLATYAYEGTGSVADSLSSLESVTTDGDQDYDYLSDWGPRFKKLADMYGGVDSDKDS
Kind of assay: FACS titration.

Assay [2] has as its target T2, rat CDH6 expressed on CHO cells (rat, UniProt P55280 54-789).
T2 sequence (looked up): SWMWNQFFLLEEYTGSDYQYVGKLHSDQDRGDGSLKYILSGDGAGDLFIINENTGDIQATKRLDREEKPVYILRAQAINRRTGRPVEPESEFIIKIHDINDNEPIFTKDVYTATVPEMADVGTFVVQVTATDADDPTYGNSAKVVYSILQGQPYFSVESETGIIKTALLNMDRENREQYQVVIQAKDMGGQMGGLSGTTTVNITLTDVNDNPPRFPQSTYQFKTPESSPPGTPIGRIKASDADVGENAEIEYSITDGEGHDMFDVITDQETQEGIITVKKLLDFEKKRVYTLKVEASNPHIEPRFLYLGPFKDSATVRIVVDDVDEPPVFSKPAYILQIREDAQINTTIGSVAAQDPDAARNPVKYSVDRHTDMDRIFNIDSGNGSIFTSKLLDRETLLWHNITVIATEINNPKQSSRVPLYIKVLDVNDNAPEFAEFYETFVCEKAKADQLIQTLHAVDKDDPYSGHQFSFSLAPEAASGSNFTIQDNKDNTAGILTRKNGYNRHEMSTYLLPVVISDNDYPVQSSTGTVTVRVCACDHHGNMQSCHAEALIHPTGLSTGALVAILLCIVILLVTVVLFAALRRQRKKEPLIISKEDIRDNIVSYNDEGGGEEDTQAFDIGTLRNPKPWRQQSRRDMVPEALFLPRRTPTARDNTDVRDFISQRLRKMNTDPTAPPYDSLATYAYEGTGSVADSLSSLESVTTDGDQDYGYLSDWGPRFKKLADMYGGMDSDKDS
The assay is described as follows: FACS titration.

The target of assay [3] is T3, human CDH6 expressed on cells (human, UniProt P55285 54-790).
T3 sequence: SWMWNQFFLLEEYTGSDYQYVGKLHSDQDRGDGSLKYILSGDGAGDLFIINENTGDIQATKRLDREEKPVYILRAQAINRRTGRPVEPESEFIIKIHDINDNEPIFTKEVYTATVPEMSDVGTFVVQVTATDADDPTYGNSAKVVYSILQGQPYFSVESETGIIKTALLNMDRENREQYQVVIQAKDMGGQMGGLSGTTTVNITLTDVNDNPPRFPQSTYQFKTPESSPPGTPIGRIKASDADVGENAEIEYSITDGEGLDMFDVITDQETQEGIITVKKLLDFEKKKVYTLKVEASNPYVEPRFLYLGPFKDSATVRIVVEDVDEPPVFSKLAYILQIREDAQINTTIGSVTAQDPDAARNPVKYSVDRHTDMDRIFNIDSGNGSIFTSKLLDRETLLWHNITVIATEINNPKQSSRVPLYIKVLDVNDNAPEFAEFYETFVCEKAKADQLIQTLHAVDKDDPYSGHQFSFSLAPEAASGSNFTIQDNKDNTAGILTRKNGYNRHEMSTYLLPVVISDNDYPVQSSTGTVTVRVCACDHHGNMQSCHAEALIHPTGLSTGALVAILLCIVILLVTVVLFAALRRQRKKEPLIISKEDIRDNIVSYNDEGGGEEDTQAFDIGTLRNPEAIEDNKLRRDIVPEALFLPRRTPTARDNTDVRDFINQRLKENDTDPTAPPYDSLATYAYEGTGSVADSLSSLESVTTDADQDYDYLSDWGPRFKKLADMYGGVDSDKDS
Kind of assay: FACS titration.

The target of assay [4] is T4, mouse CDH6 expressed on CHO cells (mouse, UniProt P97326 54-790).
T4 sequence (looked up): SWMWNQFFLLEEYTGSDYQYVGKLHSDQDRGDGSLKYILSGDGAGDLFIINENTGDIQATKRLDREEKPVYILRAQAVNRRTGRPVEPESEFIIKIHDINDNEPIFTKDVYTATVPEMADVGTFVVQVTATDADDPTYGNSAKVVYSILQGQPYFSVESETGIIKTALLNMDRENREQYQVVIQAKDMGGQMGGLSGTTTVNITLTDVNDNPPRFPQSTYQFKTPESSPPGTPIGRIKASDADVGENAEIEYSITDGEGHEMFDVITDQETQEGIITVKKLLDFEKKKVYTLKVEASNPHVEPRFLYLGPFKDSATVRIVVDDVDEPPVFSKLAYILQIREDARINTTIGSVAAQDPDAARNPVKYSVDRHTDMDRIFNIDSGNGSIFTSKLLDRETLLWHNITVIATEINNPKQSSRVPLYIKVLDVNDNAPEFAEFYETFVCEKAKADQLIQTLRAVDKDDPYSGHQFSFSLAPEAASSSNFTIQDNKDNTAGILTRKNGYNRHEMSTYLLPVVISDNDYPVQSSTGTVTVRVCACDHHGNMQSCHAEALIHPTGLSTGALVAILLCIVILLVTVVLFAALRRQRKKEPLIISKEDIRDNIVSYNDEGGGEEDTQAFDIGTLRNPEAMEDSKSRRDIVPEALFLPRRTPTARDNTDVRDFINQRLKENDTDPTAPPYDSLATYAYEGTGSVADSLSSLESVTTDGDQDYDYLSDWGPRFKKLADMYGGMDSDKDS
Kind of assay: FACS titration.

The target in assay [5] is T3, human CDH6 expressed on cells. Kind of assay: FACS titration. The source holds these as a separate data set.
The target of assay [6] is T1, cynomolgus CDH6 expressed on CHO cells. Kind of assay: FACS titration on CHO-cyCDH6.
For assay [7], the target named is T2, rat CDH6 expressed on CHO cells. The assay is described as follows: FACS titration on CHO-ratCDH6.
For assay [8], the target named is T4, mouse CDH6 expressed on CHO cells. Kind of assay: FACS titration on CHO-moCDH6.
Assay [9] has as its target T3, human CDH6 expressed on cells. The assay is described as follows: FACS titration on CHO-TO-huCDH6.

B1: NOV0712 (antibody, human IgG1, kappa, V domains shown)
VH: QVQLLESGGGLVQPGGSLRLSCAASGFTFSSHGMHWVRQAPGKGLEWVSVISGSGSNTGYADSVKGRFTISRDNSKNTLYLQMNSLRAEDTAVYYCARQWGSYAFDSWGQGTLVTVSS
VL: DIQMTQSPSSLSASVGDRVTITCRASQSISSYLNWYQQKPGKAPKLLIYAVSTLQSGVPSRFSGSGSGTDFTLTISSLQPEDFATYYCQQSGTFPPTTFGQGTKVEIKR
Regarding B1, the half-maximal effective concentration (EC50) in assay [1] came to 1.07 nM; in assay [2] it was 0.814 nM; in assay [3], 0.386 nM; in assay [4], 1.26 nM; in assay [5], 0.946 nM.

B2: NOV0712-sulfo-SPDB-DM4 (antibody, human IgG1, kappa, V domains shown)
VH: QVQLLESGGGLVQPGGSLRLSCAASGFTFSSHGMHWVRQAPGKGLEWVSVISGSGSNTGYADSVKGRFTISRDNSKNTLYLQMNSLRAEDTAVYYCARQWGSYAFDSWGQGTLVTVSS
VL: DIQMTQSPSSLSASVGDRVTITCRASQSISSYLNWYQQKPGKAPKLLIYAVSTLQSGVPSRFSGSGSGTDFTLTISSLQPEDFATYYCQQSGTFPPTTFGQGTKVEIKR
modifications: sulfo-SPDB-DM4 linker/payload on antibody amines, positions not given
On to B2, for which the concentration giving a half-maximal response (EC50) is 0.606 nM in assay [6]; 0.364 nM in assay [3]; 0.637 nM in assay [7]; 0.94 nM in assay [8]; 0.651 nM in [9].

Usually EC50 stands for the concentration giving half of the maximal effect. A low value points to a more potent agent.
